The target of test [1] is T1, mouse tenascin-C rCd4-His-FBG (rat; mouse, UniProt P05540 207-392, limits assumed).
T1 construct: domain: domains 3 and 4; C-terminal FBG fusion; biotinylated in the ELISA screen; also called Mu TNC; mouse TNC rCd4-His-FBG; not shown: 6His tag
T1 sequence (chain (part 1 of 2)): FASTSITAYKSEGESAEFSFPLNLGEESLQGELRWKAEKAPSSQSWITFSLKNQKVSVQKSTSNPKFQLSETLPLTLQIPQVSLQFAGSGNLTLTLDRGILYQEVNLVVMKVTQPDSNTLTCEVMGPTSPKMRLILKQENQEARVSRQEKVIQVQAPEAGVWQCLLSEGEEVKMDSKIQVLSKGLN
T1 sequence (chain (part 2 of 2)): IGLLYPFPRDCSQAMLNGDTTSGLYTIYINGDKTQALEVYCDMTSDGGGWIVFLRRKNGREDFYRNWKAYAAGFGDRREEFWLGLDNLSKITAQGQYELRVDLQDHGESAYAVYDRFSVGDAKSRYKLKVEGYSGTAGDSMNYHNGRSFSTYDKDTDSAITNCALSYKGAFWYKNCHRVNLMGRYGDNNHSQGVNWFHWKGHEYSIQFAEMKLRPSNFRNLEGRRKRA
Briefly: SPR, captured purified IgG4, 37 C. (In general: In SPR one partner is held on a chip, and binding of the other changes the refractive index at the surface.)

In test [2] the target is T2, human Fc-His-FBG (human, UniProt P24821 1974-2201).
T2 construct: C-terminal FBG fusion to human IgG1 Fc; also called Fc-His-huFBG; huFc-His-FBG; not shown: human IgG1 Fc tag; 6His tag
T2 sequence: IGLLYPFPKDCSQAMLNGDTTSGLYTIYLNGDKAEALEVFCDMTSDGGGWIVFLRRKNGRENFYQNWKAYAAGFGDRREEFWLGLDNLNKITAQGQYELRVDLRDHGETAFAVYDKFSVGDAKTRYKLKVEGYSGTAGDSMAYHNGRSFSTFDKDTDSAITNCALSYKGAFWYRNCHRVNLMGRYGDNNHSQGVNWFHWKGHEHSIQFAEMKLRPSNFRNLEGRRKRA
Briefly: plate assay: inhibition of binding of 100 nM Fc-His-TNC-FBG to coated TLR4, against isotype control. Here is the method:
FIG. 16B. […] Detection was carried out by successive incubation of antibody directed against the Fc portion of the protein, an anti-mouse HRP conjugated secondary antibody and TMB substrate.
Detection was carried out by successive incubation of antibody directed against the Fc portion of the protein, an anti-mouse HRP conjugated secondary antibody and TMB substrate.

Test [3] deals with T1, mouse tenascin-C rCd4-His-FBG. Briefly: SPR off-rate screen, captured IgG4 supernatant, 25 C. In short, it runs like this: (§1)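 SPR at 25 °C: IgG4 (S241P) from culture supernatant, diluted 1:2 in 2×PBS-T, captured on anti-human Fc surface; antigen injected at a fixed 15 nM (human and mouse TNC rCd4-His-FBG) or 100 nM (human TNR rCd4-His-FBG), 30 μl/min. Association 1 min, dissociation 5 min; off-rates from reference-subtracted 1:1 fits.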

Test [4] concerns the target T3, human tenascin-C rCd4-His-FBG (rat; human, UniProt P05540 207-392, limits assumed).
T3 construct: domain: domains 3 and 4; C-terminal FBG fusion; biotinylated in the ELISA and HTRF screens; also called Hu TNC; human TNC rCd4-His-FBG; not shown: 6His tag
T3 sequence (chain (part 1 of 2)): T1 sequence (chain (part 1 of 2))
T3 sequence (chain (part 2 of 2)): T2 sequence
The test is described as above. In short, it runs like this:
as §1

Test [5] addresses T4, human tenascin-R rCd4-His-FBG (rat; human, UniProt P05540 207-392, limits assumed).
T4 construct: domain: domains 3 and 4; C-terminal FBG fusion; also called Hu TNR; human TNR rCd4-His-FBG; not shown: 6His tag
T4 sequence (chain (part 1 of 2)): T1 sequence (chain (part 1 of 2))
T4 sequence (chain (part 2 of 2)): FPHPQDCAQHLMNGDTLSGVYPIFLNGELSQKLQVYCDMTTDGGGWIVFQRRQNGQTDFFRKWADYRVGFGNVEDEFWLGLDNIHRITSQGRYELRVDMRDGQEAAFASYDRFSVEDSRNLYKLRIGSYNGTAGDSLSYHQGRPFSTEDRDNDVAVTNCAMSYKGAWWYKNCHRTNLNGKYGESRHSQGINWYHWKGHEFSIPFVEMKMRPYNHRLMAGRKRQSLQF
Nature of the test: SPR, captured purified IgG4, 37 C; purified IgG4, full kinetics, SPR at 37 C. The procedure: Detailed kinetic parameters were evaluated for the 9 prioritised IgG4 antibodies. Binding characteristics were determined for interaction with human, rat and dog TNC rCD4-His-FBG, and human TNR rCD4-His-FBG. Kinetic assays followed essentially the same protocols as for the off-rate determinations described above, with some modifications as follows. […] Purified anti-FBG IgG4 was diluted to a concentration of 3.5 nM in PBS, pH 7.4, 0.05% Tween-20 and injected into FC2 at a flow rate of 10 μl/min, 60 s contact time. […] Antigens were prepared by doubling dilution in PBS, pH 7.4, 0.05% Tween-20 (highest concentration 100 nM except mouse rCD4-His-FBG which was 7 nM). Assays were performed at 37° C. (30 μl/min, 120 s contact time; mouse rCD4-His-FBGFBG 10 μl/min, 60 s contact time), with both the flow cell and injection chamber equilibrated to this temperature. As before, kinetic parameters were determined by reference cell subtraction and fitting the sensogram experimental data assuming a 1:1 interaction using BIAevaluation software (GE, BR-1005-97).

Bounds are passed on as bounds.

B1: 165_13_C3 human IgG4 (antibody, V domains shown)
VH: QVQLVESGGGLVQPGRSLRLSCAASGFTFDDYAMHWVRQAPGKGLEWVSGISGSGGSTYYADSVKGRFTISRDNAKNSLYLQMNSLRAEDTALYYCAKSYQSDEDAFDIWGQGTMVTVSS
VL: DIQMTQSPASLPTPVGDRVTITCRASQYIQGFLNWYQQKPGKAPKLLIYDASNLETGVPSRFSGSGSGTDFTLTISSLQPEDFATYYCQQSYSTPQTFGQGTKVDIKR
notes: also called IgG4 C3; C3 IgG4 MAb
For B1, the dissociation constant Kd in test [1] was determined as 0.46 nM; in test [5], 35.8 nM. The koff in test [1] is 0.000445 s⁻¹; in test [3], 3.3e-06 s⁻¹; in test [4], under 1e-05 s⁻¹; in test [5] it was 0.0431 s⁻¹. Further, the kon in test [1] is 972000 M⁻¹ s⁻¹; in test [5] it was 1.2e+06 M⁻¹ s⁻¹. For the same molecule, the IC50 in test [2] is 44.5 nM.

As a reminder, the Kd is the equilibrium constant for the complex coming apart. As usually defined, the koff is a measure of how fast the partners let go of each other. As a reminder, the kon is the second-order rate constant of association. As usually defined, the IC50 is the midpoint of a concentration-inhibition curve. Low values mean greater potency in that assay, high ones weaker potency in that assay.

The values are drawn from patent US20170306005A1 (NASCIENT, published 2017).
